Reference: publication PMC5552852, “Structural basis for Ccd1 auto-inhibition in the Wnt pathway through homomerization of the DIX domain” (Scientific Reports, 2017)

B1: zebrafish Coiled-coil-DIX1 (zCcd1) DIX domain [zebrafish] / itself (parent)
chain: AAASTKVLYYTDRSLTPFLVNIPKRLGDVTLQDFKAAVDRHGSFRYHFKSLDPEFGTVKEEVFQDDAVIPGWEGKIVAWVEED

Variants of: B1
Assay: gel filtration
Conditions: with itself; read off a plot

Row | Variant | screen value [mL]
1 | chain 1 Y10F | 80
